Results from patent publication US20060281901.

Target: ubiquitin-amyloid-β peptide fusion protein (H6Ub-Aβ42)

B1: yeast ubiquitin hydrolase-1 (YUH-1) (protein)
chain: MSGENRAVVPIESNPEVFTNFAHKLGLKNEWAYFDIYSLTEPELLAFLPRPVKAIVLLFPINEDRKSSTSQQITSSYDVIWFKQSVKNACGLYAILHSLSNNQSLLEPGSDLDNFLKSQSDTSSSKNRFDDVTTDQFVLNVIKENVQTFSTGQSEAPEATADTNLHYITYVEENGGIFELDGRNLSGPLYLGKSDPTATDLIEQELVRVRVASYMENANEEDVLNFAMLGLGPNWE
electrophoresis with Coomassie staining of the enzyme reactant (cleavage of the fusion protein by ubiquitin hydrolase): the binding site between ubiquitin and amyloid-β peptide in the fusion protein is precisely cut by the action of ubiquitin hydrolase and the fusion protein is separated into a ubiquitin fragment and an amyloid-β peptide fragment
